Data published in the DeepSol protein solubility set.

Test: soluble on expression in E. coli; label from the status in PepcDB or PDB records

Sequence | soluble on expression in E. coli
MPPPLPYDAMRSVWTDTAAPAMATAPLAGHADCDVAIVGAGITGLSAALHLAERGLRACVLEARDPGWGASGRNGGQVIPGIKHDPDEILARHGRERGEPLLHMVGTAADTVFDLIDRYGLDLVQAQIRLAAGERLDRVVPADLQPSGHAIELRVYAEDPVRFIPSPGTLAVFELPQGPGVRTETGYHAGNAVSPHYDPMIAKIIVHGADRAQAIARAEQALADTEIAGVKTNLPFLARALAFEPWRQGRLHTGIVARTLAEPAPAALTALEHHHHHH | not soluble
MGSSHHHHHHSSGLVPRGSHMGHGSRLPYGEEVINGIADIYRQEADHPVAVGFMNMSRPSIPEAINELAAMGVEKIIVTPVFLAHGVHTKHDIPHILGLDNGAEGHHHHEHEHEHEEFEFDGEIVYTEPLGADPRIAEIIRDRVKSAI | soluble
MGSDKIHHHHHHMRILLSVSRFEDELIEILDRLDETYEIFADNDCFEILKDRIPRIRPFERDDFDLLYLNWRDLPSEKREEKILSTIDENRTLLFLKAIKNYREKLVVTTLEDLKLTFSEIERAGDVSLQTRRYLLLKGLAHFLKVHSEVLESLSDLFFIKDWKAIVLERLQEGIKAPVSLLPVSIPPELVEDIGLASHLIRFLPQKACVLVKNGKIVYASSTGDLPEIEGGVFALKGVFRGEKKFDFILAEDFEGDVEGLRIKDLLHQEEGLVLLGASGYLREPVPTNDFTEVLSMHPVFDSCAVTKEGKLVLHVVELNRSDVINALEKIDLSGTEVAFNFPISDEEKAELKQKGVKKVSWIDSRRIWRRC | not soluble
MAVYLDFENHIKEIQNEIELALIRGDEDAKEILEKRLDKEVKSIYSNLTDFQKLQLARHPDRPYAMDYIDLILKDKYEVFGDRHYNDDKAIVCFVGKIDNVPVVVIGEEKGRGTKNKLLRNFGMPNPCGYR | not soluble
MSSEVEPPQKKKQPWLPDYIVENCLAHISRSYYPKLSLVSSPFALSSYPKSSTKRDIASTTEEYFFHVCLQLPKSPLPTWYTLWIKPDQIEKKKKINTFTGNTRLVQIPSSYHYPFDQVFIFNLYGAMRSSKAMVRPPSYGLVSMF | not soluble
MSLTEAPRVRLAEAEVFERPVEFRFPFRFGSARVATAPQAFVRVRVEDARGRSAIGWSAEMMMPKWFDKNPGLSPEDNVEQLRASLRLAIEGLTSLQAQTPFGLHAAAEGDHHRAAAGHGLPALVASYGLALLDRAILDALCRMTGASAAGAVRANLPGITGATAPDLEGFDLARFLSRLEPGPRLAVRHTIGLADALTAADLAPGQRLEDGLPQTLEEVIAAYGHRYFKIKVSGRPAEDTRRLLAIAAVLDQRVDAYRVTLDGNEQFENADAVADLLDRIAEEPRLEKLRASALFFEQPIVRAEALSRPVTEVAGRMPLEIDESDGDIGAFLRARALGYAGISSKSCKGFYRALVNRARVEMWNAEAGAARSFMSAEDLTTQSGLALQQDLVLAALVGAGHVERNGHHYVDGMAGAPAAEQAAYLAHHGDLYESGSGRARLAIRGGEITFSTVLRSVGLGSSVEPDWVAMVSEGHHHHHH | not soluble
KTISLYKTKIPQDKTENVDAFLVTDSELISKLEKAKNKKEETKASGKSASARVAVQATQKKQSNEKQIVGYTTTSALSEDGKHIFKLGKLNSENYERKIIVGATVETLEQSTTLQSEEAIVLAAPGKYKDSDQKRVMITQGPNLIGVHANTKENEETKKFVNW | not soluble
MGSDKIHHHHHHMPIDEWLVLNRIGIFENPSLRRYVSPFPPPELMGITSGLQSETGFAAHGADIYAALALASTIPITEYRHILDFGCGCGRLARMLKGHPHKISGCDIDLRHVKWIGQSLDFMNVKLSSVRPPIPFADDEMDAVISVSIFTHLTENSQDDFLAELFRVTRPGGTLFLTVHGAQALKRACHEQPIRHMLDMDEGRFRKAQQAFNQNKHGFVLQFGHLTTKPEKAFYTPRAIFRRIRDSFSRKTINMPFEYGIAFHPESYIREHWSKWFDILDYRHGAIHQFQDIVVLSPKK | not soluble
YPFWAQQTYPETPREPTGRIVCANCHLAAKPTEVEVPQSVLPDTVFKAVVKIPYDTSVQQVGADGSKVGLNVGAVLMLPEGFKIAPEDRIPEELKEEIGDVYFQPYGEDKDNIVIVGPLPGEQYQEIVFPVLSPNPANDKNIHFGKYSVHVGGNRGRGQVYPTGEKSNNNLYSAAATGTISKIAKQEGEDGSVKYLVDIKTESGEVVSDTIPAGPELIVSEGQAVTAGDALTNNPNVGGFGQLDAEIVLQDANR | soluble
MGSDKIHHHHHHMILFAGDPHGSYSHLYPFIQEHANVSLIILGDLQLTTSDELDKLAQFCDLWFIHGNHDSKTVSAYEALWGTKWKSRNLHGKVVDIQGIKIAGLGGVFRGQIWMPPNKPLFFDHIHYCQYAPPEKIWRGGIPLRHRTSIFPSDIEALEKQKADILICHEAPKPHPLGFSVINNLATSMQVKHIFHGHHHESFDYTKRPNKNPFKITNVGFRSLCNINGNFLLIGIDDRE | not soluble
MGSDKIHHHHHHMICMAVGIASLLFNIEEALNICESIKQITHLEIGIDNISECSELCKYKERISKLGLSIGIHLPMELNTCENIEYIRNSWINFIEKIEFELKGFDLRYFNLHLGYVMTNRVRKNRDKYLGNSVDFLDKLNTNSYVCIENTYSKGGDFSNIGNISYDFEYIFKRIKNSKICFCYDTGHCLIDEDAYVKNLKDKIRLIHLSDNDGINDTHVGIGRGILSEEGIKEVLTLDAEYLVLEINYEDIEDTISKLNNIVGEG | not soluble
MYALAFDLKIEILKKEYGEPYNKAYDDLRQELELLGFEWTQGSVYVNYSKENTLAQVYKAINKLSQIEWFKKSVRDIRAFKVEDFSDFTEIVKS | not soluble
ESEPQPEPCPGRAGAAARARWCPQPRPLVLLSLGALEFVSLSQQAFQICPVFVVCGLYQDGNSNKSFLLRSWCLHPEGTVCASSPERKDLPEALGNDPGTPGQRGLKLFGKAAGLLGKMAMAPSPSLVQVYTSPAAVAVWEWQDGLGTWHPYSATVCSFIEQQFVQQKGQRFGLGSLAHSIPLGQADPSLAPYIIDLPSWTQFRQDTGTMRAVRRHLFPQHSAPGRGVVWEWLSDDGSWTAYEASVCDYLEQQVARGNQLVDLAPLGYNYTVNYTTHTQTNKTSSFCRSVRRQAGPPYPVTTIIAPPGHTGVACSCHQCLSGSRTGPVSGRYRHSMTNLPAYPVPQHPPHRTASVFGTHQAFAPYNKPSLSGARSAPRLNTTNAWGAAPPSLGSQPLYRSSLSHLGPQHLPPGSSTSGAVSASLPSGPSSSPGSVPATVPMQMPKPSRVQQALAGMTSVLMSAIGLPVCLSRAPQPTSPPASRLASKSHGSVKRLRKMSVKEATPKPEPEPEQVIKNYTEELKVPPDEVCVLGPWLPLFLFGNNSTWKGHPPHLA | soluble
MKKYLLSFLLSMILTLTSHAESNPDPTTYPDVELSPPPRISLRSLLTAQPIKNDHYDSHNYLSTHWELIDYKGKEYEKLRDGGTLVQFKVVGAAKCFAFPGEGTTDCKDIDHTVFNLIPTNTGAFLIKDALLGFCMTSHDFDDLRLEPCGISVSGRTFSLAYQWGILPPFGPSKILRPPVGRNQGS | soluble
MGSDKIHHHHHHMQDIDEFLKKHRITEIEAIIPDMAGIARGKIIPRSKFETGESMRLPQAVMIQTVTGDYPEDGSLTGVTDPDMVCLPDASTIRLIPWAIDPTAQVIHDCVHFDGTPVEISPRRVLRRVLELYKAKGWKPVIAPELEFYLVDMNKDPDLPLAPPIGRTGRPETGRQSYSIEAVNEFDPLFEDIYEYCEVQDLEVDTLIHEVGAAQMEINFLHGDPLNLADRVFLFKRTVREAALRHHMYATFMSKPMENEPGSAMHVHQSIVDEETGRNLFTGDDGGPTDMFYAYIAGLQKYTPALMPIFAPYINSYRRLSRFMAAPINVQWGYDNRTVGFRVPHSSPVSRRVENRIPGVDCNPYLAIAGTLAAGYLGMTRRLEPTEPLASDGYSLPYQLPRNLEEGLTLMSACEPLAEILGEKFVKAYLALKETEYEAFFRVISSWERKHLLLHV | not soluble
AICCQVDNCGADLSKVKDYHRRHKVCEIHSKATTALVGGIMQRFCQQCSRFHVLEEFD | soluble
MSLEDFAESEGGVKKKIPISLVTIRSAKLFDIPFIMRIEQASFREKYPRGLFLTFLESNPDTFLVAEYNGKVIGYVMGYLRPDMEGHIMSIAVDPNYRGNGIGKALMIAVINKLFKKGARWIGLEVRVSNVIAINLYKKLGFKITKRIYSYYSDGEDAFYMILTPEDWKRVNLEEGHHHHHH | soluble
MAQSTQEAEGEQQRRQAVLRERYLSFLQKSADKPATIEMCERTTVTATIKAFQPSSEHVIVGTVAVA | not soluble
MGSDKIHHHHHHMVRKKKEVAQVPSTSKEIKDTLWKSADKLRGSMDASQYKDVALGLVFLKYVSDSFEERQKEIRAELEGKGFDEEYILEDLADVDAYTSENVFWVASNARWDFLKKYSKGMDLEGKHKSIGKLIDEAMQQLMADNESLLGTLPQIYGKDNIDQRRLGELVDLFSSTYFASTKDKKARDLLGEVYEYFLDKFAKAEGKRGGEFYTPQPVVRTLVEILEPTEGRVYDPCCGSGGMFVQAEKFLEVTKRDRSNIAVYGQELNERTWRMAKMNLAIHAISSSGLGERWGDTFARDIHAGTKMDYIMANPPFNIKDWIRNEEDARWKYGVPPAKNANFAWIQHIISKLKDHGEAGVVMANGTMTSQSSGEGEIRKNMVEDDVVSCVIALPAQLFRGTGIPVCVWFFAKDKSAGVGGSVDRRGEVLLIDARQLGHMIDRTERAFSDEDITKIANAFRTWRGRKSAEGEYEDEAGFCKSATIEEIREAGYALTPGRYVGMPEAEEDDEPIDEKIARLTAELTAALDESARLDAVVREQLGRLK | not soluble
MGSDKIHHHHHHMNQVTTYLWETHLPGGSHWSGVVRRGTTLRLTDVSGGANAAVLFYNLEEKLERYNMADTLKTQHTFCLTKGHACHSDMGRIFCCITEDTAGWHDTVCGLSDAELIQQKYGTGRYQELRNDMYRNGLDGMLVELGKWGLGRRDVVSNINFFSKVTANSVGELQFHVSHSKAGDHVDLAFAMDTLVVLSAAPHPLDPAATYRPGAVNLAVFPSTPAVTGACAHIAENARGLENTRRLYAYGGVK | not soluble
MTTPYCFNLAMRKSSRLITQFYEDRLSAVGLKSGQFSILKAVSFLKQTSNKELQGILVLDQTTLSRNLKPLFRDGYLKLSPDSNDARVKLISLTTQGQALYEKADPLWQKAQDDLEKKLGSEEVKNILTLADSFVKALAR | not soluble
AQGQRRAPLSVVFTEPQVASVGLSLRQIEDLYADQDAANYVVGQVSFEGQGRSRVMGKNKGLLNVYADRTSGEFLGAEMFGPAAEHIGHLLAWARQQQMTVQAMLTMPFYHPVIEEGLRTALRDAQQKLAIEKHDMNEFIMTHDNAMKLVI | not soluble
MKSFKEQYTLDERLAESREIIAKYPTRIPVIAEKYCKTDLPAIEKKKFLVPRDMSVGQFIYILSARLHLSPGKALFVFVNNTLPQTAALMDSVYESYKDDDGFVYMCYSSEKTFG | not soluble
MHHHHHHSSGVDLGTENLYFQSNAMKEELIERFTRYVKIDTQSNEDSHTVPTTPGQIEFGKLLVEELKEVGLTEVTMDDNGYVMATLPANTDKDVPVIGFLAHLDTATDFTGKNVKPQIHENFDGNAITLNEELNIVLTPEQFPELPSYKGHTIITTDGTTLLGADDKAGLTEIMVAMNYLIHNPQIKHGKIRVAFTPDEEIGRGPAHFDVEAFGASFAYMMDGGPLGGLEYESFNAAGAKLTFNGTNTHPGTAKNKMRNATKLAMEFNGHLPVEEAPEYTEGYEGFYHLLSLNGDVEQSKAYYIIRDFDRKNFEARKNTIENIVKQMQEKYGQDAVVLEMNDQYYNMLEKIEPVREIVDIAYEAMKSLNIEPNIHPIRGGTDGSQLSYMGLPTPNIFTGGENYHGKFEYVSVDVMEKAVQVIIEIARRFEEQA | soluble
